Columns and labels:
HLA-B*40:01 = test: IEDB peptide-MHC binding, purified MHC/competitive/radioactivity; filed as Kd, often an IC50 or EC50 that approximates it; ≥ and ≤ were set here for values at or beyond the usual limits of such assays
HLA-B*45:01 = test: as above
HLA-B*18:01 = test: as above
HLA-B*44:03 = test: as above
HLA-B*40:02 = test: as above
HLA-B*44:02 = test: as above
HLA-B*35:01 = test: as above
HLA-B*15:01 = test: as above
HLA-A*03:01 = test: IEDB peptide-MHC binding, purified MHC/competitive/fluorescence; filed as Kd, often an IC50 or EC50 that approximates it; ≥ and ≤ were set here for values at or beyond the usual limits of such assays
HLA-B*07:02 = test: IEDB peptide-MHC binding, purified MHC/competitive/radioactivity; filed as Kd, often an IC50 or EC50 that approximates it; ≥ and ≤ were set here for values at or beyond the usual limits of such assays
HLA-A*32:01 = test: as above
HLA-A*30:01 = test: as above; conditions: source organism: Dengue virus 1 Brazil/97-11/1997
HLA-A*11:01 = test: IEDB peptide-MHC binding, purified MHC/competitive/fluorescence; ≥ and ≤ were set here for values at or beyond the usual limits of such assays
[1] = source organism: SARS coronavirus Tor2
[2] = source organism: Lymphocytic choriomeningitis virus (strain WE)
[3] = source organism: Dengue virus 4 Philippines/H241/1956
[4] = source organism: Lymphocytic choriomeningitis virus (strain Armstrong)
[5] = source organism: Mammarenavirus lassaense
[6] = source organism: Mammarenavirus brazilense
[7] = source organism: Mammarenavirus juninense
[8] = source organism: Mammarenavirus machupoense
[9] = source organism: Dengue virus 3 China/80-2/1980
[10] = source organism: Vaccinia virus Copenhagen

How did the Kd (HLA-B*40:01; [1]) turn out when EEAALCTFL was run?
Its Kd is 172 nM.

What about the Kd (HLA-B*45:01; [1]) of the same sequence?
Its Kd is 37.8 nM.

And the Kd (HLA-B*18:01; [1])?
The Kd was 11800 nM.

And the Kd (HLA-B*44:03; [1])?
The Kd was 168 nM.

What about the Kd (HLA-B*40:02; [1]) of the same sequence?
The Kd was 840 nM.

What about the Kd (HLA-B*44:02; [1]) of the same sequence?
The Kd was 452 nM.

Which Kd (HLA-B*40:01; [2]) does the source give for REPTDQKQF here?
Its Kd is no less than 20400 nM.

And the Kd (HLA-B*45:01; [2])?
The Kd was no less than 77700 nM.

What about the Kd (HLA-B*18:01; [2]) of the same sequence?
Its Kd is no less than 77500 nM.

And the Kd (HLA-B*44:03; [2])?
The Kd was 8940 nM.

And the Kd (HLA-B*40:02; [2])?
Its Kd is 6290 nM.

And the Kd (HLA-B*44:02; [2])?
Its Kd is 1340 nM.

How did the Kd (HLA-B*35:01; [3]) turn out when YKVASAGISY was run?
The Kd was 70.4 nM.

What about the Kd (HLA-B*15:01; [3]) of the same sequence?
Its Kd is 2.96 nM.

For FLWWGKWRK, which Kd (HLA-A*03:01; source organism: Brucella abortus str. 2308 A) is on record?
Its Kd is 3.1 nM.

FEIKSAKKF was tested. Which Kd (HLA-B*40:01; [1]) did it give?
Its Kd is 1710 nM.

What about the Kd (HLA-B*45:01; [1]) of the same sequence?
Its Kd is 18000 nM.

What about the Kd (HLA-B*18:01; [1]) of the same sequence?
The Kd was 1080 nM.

And the Kd (HLA-B*44:03; [1])?
Its Kd is 35.3 nM.

And the Kd (HLA-B*40:02; [1])?
Its Kd is 621 nM.

And the Kd (HLA-B*44:02; [1])?
The Kd was 15.9 nM.

Which Kd (HLA-A*03:01; source organism: Influenza A virus (A/swine/Italy/1509-6/97(H1N1))) does the source give for ATYQRTRALVR here?
Its Kd is 38.9 nM.

With SEISVILQEL as the sequence, how does the Kd (HLA-B*40:01; [4]) read?
The Kd was 868 nM.

And the Kd (HLA-B*45:01; [4])?
Its Kd is 4170 nM.

What about the Kd (HLA-B*18:01; [4]) of the same sequence?
Its Kd is 10300 nM.

And the Kd (HLA-B*44:03; [4])?
The Kd was 240 nM.

What about the Kd (HLA-B*40:02; [4]) of the same sequence?
Its Kd is 544 nM.

What about the Kd (HLA-B*44:02; [4]) of the same sequence?
Its Kd is 106 nM.

ADNLITEML was tested. Which Kd (HLA-B*40:01; [5]) did it give?
Its Kd is no less than 27800 nM.

What about the Kd (HLA-B*45:01; [5]) of the same sequence?
Its Kd is no less than 77700 nM.

And the Kd (HLA-B*18:01; [5])?
The Kd was no less than 36300 nM.

What about the Kd (HLA-B*44:03; [5]) of the same sequence?
Its Kd is 12300 nM.

And the Kd (HLA-B*40:02; [5])?
Its Kd is 415 nM.

And the Kd (HLA-B*44:02; [5])?
The Kd was 6200 nM.

Which Kd (HLA-B*40:01; [1]) does the source give for DEFIQRYKL here?
The Kd was no less than 23900 nM.

And the Kd (HLA-B*45:01; [1])?
Its Kd is no less than 25900 nM.

And the Kd (HLA-B*18:01; [1])?
The Kd was 47.9 nM.

And the Kd (HLA-B*44:03; [1])?
Its Kd is 8800 nM.

What about the Kd (HLA-B*40:02; [1]) of the same sequence?
The Kd was 2500 nM.

What about the Kd (HLA-B*44:02; [1]) of the same sequence?
Its Kd is 15900 nM.

Which results are given for SEIQLQRLC?
Kd (HLA-B*40:01; [6]): 1770 nM; Kd (HLA-B*45:01; [6]): 990 nM; Kd (HLA-B*18:01; [6]): 10500 nM; Kd (HLA-B*44:03; [6]): 327 nM; Kd (HLA-B*40:02; [6]): 68.5 nM; Kd (HLA-B*44:02; [6]): 285 nM

AETGSQGVYM was tested. Which Kd (HLA-B*40:01; [7]) did it give?
Its Kd is 3030 nM.

And the Kd (HLA-B*45:01; [7])?
The Kd was 13600 nM.

What about the Kd (HLA-B*18:01; [7]) of the same sequence?
The Kd was no less than 70400 nM.

And the Kd (HLA-B*44:03; [7])?
The Kd was 1040 nM.

And the Kd (HLA-B*40:02; [7])?
Its Kd is 184 nM.

What about the Kd (HLA-B*44:02; [7]) of the same sequence?
Its Kd is 304 nM.

EELSLMYEAL was tested. Which Kd (HLA-B*40:01; [8]) did it give?
The Kd was 15400 nM.

And the Kd (HLA-B*45:01; [8])?
Its Kd is 1590 nM.

What about the Kd (HLA-B*18:01; [8]) of the same sequence?
The Kd was 1810 nM.

What about the Kd (HLA-B*44:03; [8]) of the same sequence?
Its Kd is 2000 nM.

And the Kd (HLA-B*40:02; [8])?
Its Kd is 205 nM.

And the Kd (HLA-B*44:02; [8])?
Its Kd is 1790 nM.

RLLHRTTRK was tested. Which Kd (HLA-A*03:01; source organism: Yersinia pestis Nepal516) did it give?
Its Kd is 13.3 nM.

For RPINEKEENM, which Kd (HLA-B*07:02; [9]) is on record?
Its Kd is 222 nM.

And the Kd (HLA-B*35:01; [9])?
The Kd was 1830 nM.

For RIKGMSYTM, which Kd (HLA-A*32:01; [3]) is on record?
The Kd was 37.4 nM.

And the Kd (HLA-B*15:01; [3])?
The Kd was 32.2 nM.

Which results are given for KMRPMFAVG?
Kd (HLA-A*30:01): 14.7 nM; Kd (HLA-B*15:01; source organism: Dengue virus 1 Brazil/97-11/1997): 34.6 nM

Which results are given for EEPVSLLPLS?
Kd (HLA-B*40:01; [8]): 7390 nM; Kd (HLA-B*45:01; [8]): 565 nM; Kd (HLA-B*18:01; [8]): ≥ 38400 nM; Kd (HLA-B*44:03; [8]): 1870 nM; Kd (HLA-B*40:02; [8]): 6150 nM; Kd (HLA-B*44:02; [8]): 5710 nM

With VEAVMYMGTL as the sequence, how does the Kd (HLA-B*40:01; [1]) read?
The Kd was 22.2 nM.

What about the Kd (HLA-B*45:01; [1]) of the same sequence?
Its Kd is 508 nM.

And the Kd (HLA-B*18:01; [1])?
Its Kd is 7240 nM.

What about the Kd (HLA-B*44:03; [1]) of the same sequence?
The Kd was 516 nM.

What about the Kd (HLA-B*40:02; [1]) of the same sequence?
The Kd was 33.8 nM.

And the Kd (HLA-B*44:02; [1])?
Its Kd is 1540 nM.

For LMRSICVSI, which Kd (HLA-A*32:01; [10]) is on record?
Its Kd is 380 nM.

What about the Kd (HLA-B*15:01; [10]) of the same sequence?
The Kd was 63.4 nM.

Which IC50 (HLA-A*11:01; source organism: Zaire ebolavirus) does the source give for NISGQSPAR here?
Its IC50 is 47600 nM.

YKTLCDMIK was tested. Which IC50 (HLA-A*11:01; source organism: Vaccinia virus) did it give?
The IC50 was no less than 230000 nM.

For GETPIAYRNV, which Kd (HLA-B*40:01; [1]) is on record?
Its Kd is 1650 nM.

What about the Kd (HLA-B*45:01; [1]) of the same sequence?
The Kd was 698 nM.

What about the Kd (HLA-B*18:01; [1]) of the same sequence?
The Kd was no less than 59500 nM.

And the Kd (HLA-B*44:03; [1])?
The Kd was no less than 22700 nM.

And the Kd (HLA-B*40:02; [1])?
The Kd was 281 nM.

What about the Kd (HLA-B*44:02; [1]) of the same sequence?
Its Kd is no less than 38100 nM.

With LLAISAVYF as the sequence, how does the Kd (HLA-B*15:01; source organism: Vaccinia virus WR) read?
The Kd was 31.7 nM.

With STLPETTVVRR as the sequence, how does the Kd (HLA-B*07:02; source organism: Hepatitis B virus subtype adw2) read?
Its Kd is no less than 35000 nM.

For KLSSEQLSK, which Kd (HLA-A*03:01; source organism: Trypanosoma cruzi) is on record?
Its Kd is 108 nM.

RPLSEKEENM was tested. Which Kd (HLA-B*07:02; [3]) did it give?
Its Kd is 2030 nM.

What about the Kd (HLA-B*35:01; [3]) of the same sequence?
The Kd was no less than 30100 nM.

With REVSTAAVT as the sequence, how does the Kd (HLA-B*40:01; [1]) read?
The Kd was 112 nM.

And the Kd (HLA-B*45:01; [1])?
The Kd was 30.3 nM.

And the Kd (HLA-B*18:01; [1])?
Its Kd is 16900 nM.

What about the Kd (HLA-B*44:03; [1]) of the same sequence?
The Kd was 6860 nM.

And the Kd (HLA-B*40:02; [1])?
The Kd was no less than 21100 nM.

What about the Kd (HLA-B*44:02; [1]) of the same sequence?
The Kd was 16000 nM.
